Consider three molecules from US12077763B2, “RNA-based control of powdery mildew” (Greenlight Biosciences, Inc., priority 2021, dated 2024).

This series concerns E. necator. Kind of series: Leaf disc assay, dry inoculum (settling tower), decrease in disease severity / hyphal growth (Example 2). As to conditions: decrease in disease severity (hyphal growth) relative to untreated control, value ± SE; for % decrease =/− SE TP1: time point 1 (untreated control hyphal growth ≥50%); for % decrease =/− SE TP2: time point 2.

B1: GS3526 (nucleic acid)
sense: UAUCCCUGAUUUCUAUAGUCUGAUGAAGAAUGAUUUUUGUAGGCAAUAGACUUUCUUCUCUUCCCAGAACAGCAGCUUCUACAGCAUCCACAACAGCUUAGGAAAGAGAAGCAAGAACAACAAAAUGAGUAUCCAAAGCACAAGCAGCGUGUCAUACAAAUGAUAAUUGAGAGGACUAUUAAGCCACCGAUAACAAGUCCGAUUAUUGCUGGCCAUUUGCAAUAAAUUUGUAUCAUGCAUUUAUCCCAGUUGGUGAAUGAAGAAGUAACGUUUGAUACUUGAUUAGUUAAUUGAUCACUCAACUGAUCACUUACAAGCCUUGGCCUAAGCAAACUAAUCUCCAAAAAAUUCAUGUUUCCAAUAUUAACACCUCCGUGAUCUUCAUUAAAUAAGUAA
antisense: UUACUUAUUUAAUGAAGAUCACGGAGGUGUUAAUAUUGGAAACAUGAAUUUUUUGGAGAUUAGUUUGCUUAGGCCAAGGCUUGUAAGUGAUCAGUUGAGUGAUCAAUUAACUAAUCAAGUAUCAAACGUUACUUCUUCAUUCACCAACUGGGAUAAAUGCAUGAUACAAAUUUAUUGCAAAUGGCCAGCAAUAAUCGGACUUGUUAUCGGUGGCUUAAUAGUCCUCUCAAUUAUCAUUUGUAUGACACGCUGCUUGUGCUUUGGAUACUCAUUUUGUUGUUCUUGCUUCUCUUUCCUAAGCUGUUGUGGAUGCUGUAGAAGCUGCUGUUCUGGGAAGAGAAGAAAGUCUAUUGCCUACAAAAAUCAUUCUUCAUCAGACUAUAGAAAUCAGGGAUA
Regarding B1, the “% decrease =/− SE TP1” value is recorded as 22 ± 10% and the “% decrease =/− SE TP2” value is 11 ± 10%.

B2: GS3524 (nucleic acid)
sense: UCAAGUCCACUUCGAUUUGUAAAGCAAGAAGUUAUGAGACCUUGAGAAUGACUGAGGUAGGCCGAAUAAGAUUUUCAGAUUCUAAAAUACUGGAUUUUGGUACCAAUUCAUGAUCCUUUCUGGCCCCCUUACAUUGGCGACAAGGCAGAUAGUCAUCGAGUUGGUCUUUUCCAGUCAAAGAAUGAUAAUCUCCAACGUCUUUCCGGGAAACAGAAGUUGUAUUGACAUUAAUUACAGCUGUGGAUGAGGAUGAACGAUAAUAUUGGCGUUGAGCUACAGGGAAGGGAUUCAACAGAUGCCAUUGCCAUUCAUAAUUUCCAUGAAGCCAAGUCGUUGAAGCCAGAGAUGCAAGUGUAUGGAAGAAUCCCAAGAGCCAAUUGAUUGAAGACAGAAUUACU
antisense: AGUAAUUCUGUCUUCAAUCAAUUGGCUCUUGGGAUUCUUCCAUACACUUGCAUCUCUGGCUUCAACGACUUGGCUUCAUGGAAAUUAUGAAUGGCAAUGGCAUCUGUUGAAUCCCUUCCCUGUAGCUCAACGCCAAUAUUAUCGUUCAUCCUCAUCCACAGCUGUAAUUAAUGUCAAUACAACUUCUGUUUCCCGGAAAGACGUUGGAGAUUAUCAUUCUUUGACUGGAAAAGACCAACUCGAUGACUAUCUGCCUUGUCGCCAAUGUAAGGGGGCCAGAAAGGAUCAUGAAUUGGUACCAAAAUCCAGUAUUUUAGAAUCUGAAAAUCUUAUUCGGCCUACCUCAGUCAUUCUCAAGGUCUCAUAACUUCUUGCUUUACAAAUCGAAGUGGACUUGA
Take B2: the “% decrease =/− SE TP1” value was determined as 3 ± 11% and the “% decrease =/− SE TP2” value amounted to 22 ± 12%.

B3: GS3525 (nucleic acid)
sense: CUGGAAUUGUUGCACUGGCCAUGUAAAGCAGUUUAUGACUCGUCUAAAUAUUUAAUUACGGCUAUGCACGGAGAGCUUGGGGUUACUGUUUUUUUUUCUCAAAAAUAUGCCGGUGGGAUUCGAAUUGGUCCGGAUAUUUUUUCUGUAAAUAAUUGAGUGACGGCUUUGUACUCGUGAUAAUUACAGACAAAUCUAAUAUAAUGUGCUUAUCCUUCUAACGAACUUCGGAGAAUGAUUUGUUUUAUUGAGUGAUUAGUUGACUUGUUUUAUUAGUUAUGGUUAUCAAACGAUCACAUAAAAAAACGCAUACUUUUUACAAUGAAGUGAUUGUAUACCAAUGUUUCCCUUGGUGGCCCUCAAAAAACUAAGUUAGAUAGAU
antisense: AUCUAUCUAACUUAGUUUUUUGAGGGCCACCAAGGGAAACAUUGGUAUACAAUCACUUCAUUGUAAAAAGUAUGCGUUUUUUUAUGUGAUCGUUUGAUAACCAUAACUAAUAAAACAAGUCAACUAAUCACUCAAUAAAACAAAUCAUUCUCCGAAGUUCGUUAGAAGGAUAAGCACAUUAUAUUAGAUUUGUCUGUAAUUAUCACGAGUACAAAGCCGUCACUCAAUUAUUUACAGAAAAAAUAUCCGGACCAAUUCGAAUCCCACCGGCAUAUUUUUGAGAAAAAAAAACAGUAACCCCAAGCUCUCCGUGCAUAGCCGUAAUUAAAUAUUUAGACGAGUCAUAAACUGCUUUACAUGGCCAGUGCAACAAUUCCAG
Turning to B3, the “% decrease =/− SE TP1” value turned out to be 17 ± 9% and the “% decrease =/− SE TP2” value is 34 ± 8%.
